According to PMC8884700, “Selection and Modelling of a New Single-Domain Intrabody Against TDP-43” (Frontiers in Molecular Biosciences, 2021):

Key:
[1] = target: T1, LexA-TDP-43 full length (residues 1-414) (Homo sapiens (species of cDNA not …, UniProt Q13148)); assay: two-hybrid; IACT / in vivo epitope mapping in L40 yeast; LexA-fused bait, VP16-fused VHH prey; growth on SD-WHL (HIS3); liquid beta-gal (LacZ) for the full-length bait; conditions: partners not purified
T1 construct: also called TDP-43 bait; source: yeast two-hybrid fusion (L40 yeast, pMicBD1 bait plasmid)
T1 sequence (Q13148 whole entry, the tested form may be a part): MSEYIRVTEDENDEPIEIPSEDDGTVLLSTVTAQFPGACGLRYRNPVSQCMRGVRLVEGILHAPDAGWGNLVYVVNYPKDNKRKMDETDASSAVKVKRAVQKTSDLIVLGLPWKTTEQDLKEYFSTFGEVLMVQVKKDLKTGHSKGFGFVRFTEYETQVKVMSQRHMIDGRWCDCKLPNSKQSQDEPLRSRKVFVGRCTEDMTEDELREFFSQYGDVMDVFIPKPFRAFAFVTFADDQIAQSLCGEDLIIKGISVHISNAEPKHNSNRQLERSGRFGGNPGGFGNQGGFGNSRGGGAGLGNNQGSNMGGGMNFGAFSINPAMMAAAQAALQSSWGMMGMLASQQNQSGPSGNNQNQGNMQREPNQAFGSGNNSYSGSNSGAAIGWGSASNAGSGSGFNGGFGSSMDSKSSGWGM

[2] = target: T2, LexA-N-term + RRM1-2 (residues 1-258) (Homo sapiens (species of cDNA not …, UniProt Q13148)); assay: as above; conditions: partners not purified
T2 construct: TDP-43, residues 1-258 (N-terminus plus RRM1 and RRM2); also called LexA- N-Term + RRM1-2 (1-258); N-terminal half of TDP-43; source: yeast two-hybrid fusion (L40 yeast)
T2 sequence (Q13148 1-258): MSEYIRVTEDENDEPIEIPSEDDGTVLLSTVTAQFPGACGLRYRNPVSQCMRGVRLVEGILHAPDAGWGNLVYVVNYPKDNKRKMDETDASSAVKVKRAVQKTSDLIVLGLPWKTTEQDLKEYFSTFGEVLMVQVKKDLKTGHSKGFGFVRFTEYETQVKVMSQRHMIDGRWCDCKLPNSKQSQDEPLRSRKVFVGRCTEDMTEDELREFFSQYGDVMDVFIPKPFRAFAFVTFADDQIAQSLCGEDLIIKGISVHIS

LexA-RRM2 (192-258) = target: T3, LexA-RRM2 (192-258) (Homo sapiens (species of cDNA not …, UniProt Q13148)); assay: as above; conditions: partners not purified
T3 construct: TDP-43, RRM2, residues 192-258; also called RRM2 bait; source: yeast two-hybrid fusion (L40 yeast)
T3 sequence (Q13148 192-258): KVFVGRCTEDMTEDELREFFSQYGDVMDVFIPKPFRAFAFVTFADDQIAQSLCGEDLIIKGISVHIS

[3] = target: T4, LexA fragment of RRMs (160-208) (Homo sapiens (species of cDNA not …, UniProt Q13148)); assay: as above; conditions: partners not purified
T4 construct: TDP-43, residues 160-208, containing the linker between RRM1 and RRM2; also called RRMs bait; source: yeast two-hybrid fusion (L40 yeast)
T4 chain: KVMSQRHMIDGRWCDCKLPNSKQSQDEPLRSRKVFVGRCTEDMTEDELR

purified RRM2 of TDP-43 = target: T5, purified RRM2 of TDP-43 (Homo sapiens, UniProt Q13148); assay: ELISA; indirect ELISA; TDP-43 fragments coated at 1 uM in carbonate buffer pH 9.6; VHH5 added at 1, 3, 5 and 10 uM, 2 h, room temperature; detected with anti-camelid VHH [HRP]; conditions: both partners purified
T5 construct: TDP-43, RRM2 domain; source: purified
T5 sequence (Q13148 whole entry, looked up, the tested form may be a part): as the sequence (Q13148 whole entry, the tested form may be a part) above

[4] = target: T6, purified RRM1-2 of TDP-43 (tandem RRM domains) (Homo sapiens, UniProt Q13148); assay: ELISA; sandwich ELISA; VHH5 coated at 1, 3, 5 and 10 uM in carbonate buffer pH 9.6; TDP-43 fragments (10 ug/ml) added in PBS/BSA 1% pH 7.4, 2 h, room temperature; detected with rabbit anti-TDP-43 polyclonal and HRP secondary antibody; conditions: both partners purified
T6 construct: TDP-43, tandem RRM1 and RRM2 domains; Production and limits of the purified construct are not described; The docking used PDB 4bs2 (human TDP-43 tandem RRM1-2) as the putative antigen; source: purified

purified RRM1 of TDP-43 = target: T7, purified RRM1 of TDP-43 (Homo sapiens, UniProt Q13148); assay: as above; conditions: both partners purified
T7 construct: TDP-43, RRM1 domain; source: purified

Measured: binding result

B1: anti-TDP-43 VHH5 intrabody (VP16 activation domain fusion, prey in pLinker220) (VHH)
VHH: KVQLVESGGGSVQIGGSLRLSCRISEGSGNKYVMAWFRQAPGQEREFVGVISWSGTRTHYADSVRGRFTISRMDNTAYLQMDSLTPDDSGVYYCAASVSVPPFLELTAAHFGSWGQGTQVRVGS
notes: selected from a naive llama VHH SPLINT library; The modelling sections number residues 1-135, with H3 at 94-114; source: yeast two-hybrid fusion (L40 yeast, pLinker220 prey plasmid)
binds: [1] | [2] | LexA-RRM2 (192-258) | [3]

B2: VHH5-I15A_M75K (VHH)
VHH: KVQLVESGGGSVQAGGSLRLSCRISEGSGNKYVMAWFRQAPGQEREFVGVISWSGTRTHYADSVRGRFTISRKDNTAYLQMDSLTPDDSGVYYCAASVSVPPFLELTAAHFGSWGQGTQVRVGS
notes: also called purified VHH5; double mutant; not shown: SUMO, N-terminal, cleaved
binds: purified RRM2 of TDP-43 | [4] | purified RRM1 of TDP-43
